Biological target: SARS-CoV-2 S-protein RBD (SARS-CoV-2, UniProt P0DTC2)
Assay: SPR
Details: both partners purified

B1: S-protein neutralizing peptide AYn1 (peptide)
peptide: KKKKKKDKFNHEAEDLFY
notes: also called 6K-modified AYn1 peptide
Kd: 95.6 nM
